# Source: IntAct's records for PubMed 17012248
# B1: Sialic acid-binding Ig-like lectin 14 (Homo sapiens), Q08ET2 (parent)
# chain: MLPLLLLPLLWGGSLQEKPVYELQVQKSVTVQEGLCVLVPCSFSYPWRSWYSSPPLYVYWFRDGEIPYYAEVVATNNPDRRVKPETQGRFRLLGDVQKKNCSLSIGDARMEDTGSYFFRVERGRDVKYSYQQNKLNLEVTALIEKPDIHFLEPLESGRPTRLSCSLPGSCEAGPPLTFSWTGNALSPLDPETTRSSELTLTPRPEDHGTNLTCQVKRQGAQVTTERTVQLNVSYAPQNLAISIFFRNGTGTALRILSNGMSVPIQEGQSLFLACTVDSNPPASLSWFREGKALNPSQTSMSGTLELPNIGAREGGEFTCRVQHPLGSQHLSFILSVQRSSSSCICVTEKQQGSWPLVLTLIRGALMGAGFLLTYGLTWIYYTRCGGPQQSRAERPG
# Variants of: B1
# Settings: with tyobp_human TYROBP
row,Variant,effect of a mutation on the interaction
1,R362A,decreasing interaction
